{"source": "patent US20050266562", "key": {"Sp1": {"target": "Sp1 (UniProt P08047)", "sequence (P08047 2-785)": "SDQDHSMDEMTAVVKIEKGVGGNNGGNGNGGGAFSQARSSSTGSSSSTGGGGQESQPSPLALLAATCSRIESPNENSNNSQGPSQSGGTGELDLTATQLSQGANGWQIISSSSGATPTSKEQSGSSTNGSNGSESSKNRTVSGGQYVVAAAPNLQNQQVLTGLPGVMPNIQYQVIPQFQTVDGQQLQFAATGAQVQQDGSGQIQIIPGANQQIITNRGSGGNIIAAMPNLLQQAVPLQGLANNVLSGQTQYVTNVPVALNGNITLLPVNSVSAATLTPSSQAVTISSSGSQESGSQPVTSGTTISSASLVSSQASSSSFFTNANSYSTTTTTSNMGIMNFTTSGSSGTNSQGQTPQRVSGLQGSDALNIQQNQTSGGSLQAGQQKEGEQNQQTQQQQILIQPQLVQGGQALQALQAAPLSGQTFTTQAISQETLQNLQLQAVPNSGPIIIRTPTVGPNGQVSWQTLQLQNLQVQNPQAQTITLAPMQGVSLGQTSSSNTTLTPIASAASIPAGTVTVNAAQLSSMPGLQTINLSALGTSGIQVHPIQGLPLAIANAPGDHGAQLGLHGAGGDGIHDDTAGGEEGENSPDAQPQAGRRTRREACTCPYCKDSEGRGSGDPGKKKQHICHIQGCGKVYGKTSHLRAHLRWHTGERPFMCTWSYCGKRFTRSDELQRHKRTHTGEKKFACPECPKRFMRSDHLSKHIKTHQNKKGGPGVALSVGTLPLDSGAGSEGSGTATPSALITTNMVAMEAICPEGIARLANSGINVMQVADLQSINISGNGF", "assay": "cell_activity", "settings": "luciferase induction in Drosophila cells"}, "Sp3": {"target": "Sp3 (UniProt Q02447)", "sequence (Q02447 whole entry)": "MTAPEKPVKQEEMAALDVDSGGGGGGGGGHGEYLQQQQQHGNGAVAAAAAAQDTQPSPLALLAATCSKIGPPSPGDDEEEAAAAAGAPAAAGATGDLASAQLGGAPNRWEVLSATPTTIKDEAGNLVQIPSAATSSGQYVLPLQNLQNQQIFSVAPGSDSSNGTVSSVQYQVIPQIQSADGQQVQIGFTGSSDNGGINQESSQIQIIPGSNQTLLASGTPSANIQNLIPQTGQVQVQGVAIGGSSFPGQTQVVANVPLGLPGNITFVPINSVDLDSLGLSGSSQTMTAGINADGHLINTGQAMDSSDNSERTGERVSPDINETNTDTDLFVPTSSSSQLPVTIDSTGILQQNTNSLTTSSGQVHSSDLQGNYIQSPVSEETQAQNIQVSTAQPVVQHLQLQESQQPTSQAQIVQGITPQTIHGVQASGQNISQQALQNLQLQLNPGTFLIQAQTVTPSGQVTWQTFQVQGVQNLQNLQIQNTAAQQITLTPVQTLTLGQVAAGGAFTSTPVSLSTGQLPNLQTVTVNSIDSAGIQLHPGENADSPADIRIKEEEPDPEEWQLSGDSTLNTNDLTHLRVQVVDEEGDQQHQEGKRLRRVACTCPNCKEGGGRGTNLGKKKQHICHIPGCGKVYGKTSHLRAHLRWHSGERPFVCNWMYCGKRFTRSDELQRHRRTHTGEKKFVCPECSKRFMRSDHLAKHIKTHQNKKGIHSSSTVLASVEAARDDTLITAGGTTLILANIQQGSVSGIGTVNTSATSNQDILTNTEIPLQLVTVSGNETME", "assay": "cell_activity", "settings": "luciferase induction in Drosophila cells"}}, "data": [{"substance": "CD11c promoter -196/+30 (luc reporter)", "values": [{"measurement": "activity", "setting": "Sp1", "result": 19.5, "unit": "fold"}, {"measurement": "activity", "setting": "Sp3", "result": 18.9, "unit": "fold"}]}, {"substance": "CTGTATTGTTGTACAGAACTGCAGTTTGTTCTTTGTTATTTATTGTAAAGACAGGGTCTGGCTATGTTGCCTAGGCTGGTCTCGAACTGTTGGCCTCAAGCAATCCACCTGCCAAGCTCTGGGACCACAGGCATGAGCCATGGCATCTGATCKGTAGTTTGATCTTATTTCTTGCTGAGTAGTAGCCCATGGCATGACTTTATTATTTTGGGTGTCCATTCTCCTCTGGAGGGGCTCTGCTTTTTGAAACCACACCCTGGCCTAGCTCCCCTTCTCCCTGCCTCTCTGCAGGCTCACATCCACATGCCAAGACCTCTGCAGCCATTCTGCTTCCTGTCCTTCCACTCCTGTGGGACCTCAGAGAGCTACGGGGCTCCCTGGGTACCAACTGGCTCCTGAGGCCTGGGGGAGGGTGGTCTTCTGGGAGAAGGAAGCCAGGTCCCTGCAGGTTGTGGAGGGGGACAGAATGAGGGTTTTTCCCCAGGATGTTGTTGGCCCCTGCCCCCACTTCTGTTCCATAATTAACCACGCCCCTCCTACCCACTGTGCCCCTCTTCCTGCTGTGTGGAGGCCCTGAATCATTATTTTAACTACCCCCTGGGAGGGTGAGCACCTTCTGTGCTCTGTCCCCAACCTTCCACTTCCCCTCAACGCGCTGCTCAGGG (double strand) [CD11d promoter -591/+74 (luc reporter)]", "values": [{"measurement": "activity", "setting": "Sp1", "result": 4.1, "unit": "fold"}]}]}
